Drawing on US20220056125A1, this text covers IC50 mean, calcium flux and IC50 mean, β-arrestin for 1 molecule.

The assay deals with cynomolgus PAR-2 on cells (cynomolgus monkey). In words: cell-based or functional assay.

B1: P24E1102 (antibody, human IgG4 S228P, kappa, V domains shown)
VH: QVQLVQSGAEVKKPGSSVKVSCKASGFSLSSYAISWVRQAPGQGLEWMGVIWGNQNVYYAQKFQGRVTITADESTSTAYMELSSLRSEDTAVYYCARWKGYKDYPFDYWGQGTLVTVSS
VL: EIVLTQSPATLSLSPGERATLSCRASQNVYKWLDWYQQKPGQAPRLLIYNANTRATGIPARFSGSGSGRDFTLTISSLEPEDFAVYYCQQHHSGWTFGGGTKVEIKR
Consider B1, for which the IC50 mean, calcium flux at SLIGKV EC80, Nomad line came out at 3.98 nM and the IC50 mean, β-arrestin at SLIGKV EC80, Nomad line was determined as 15.2 nM.
